The text below walks through data of US20260000780A1, “B-LYMPHOCYTE SPECIFIC AMATOXIN ANTIBODY CONJUGATES” (priority 2021, published 2026).

One data set deals with RNA-polymerase II (Homo sapiens, UniProt P24928+P30876). As to conditions: read-out: KD of the complex between amanitin and RNA-polymerase II; cited from earlier work.
The next data set has as its system MEC-2 tumor xenograft. The data set is described as follows: Disseminated MEC-2 tumor xenograft model. Type of data set: in vivo, CB17 Scid mice. As to conditions: day 138 after treatment. The procedure: Cytotoxic efficacy studies in vivo were performed using various anti-CD37 antibody amatoxin conjugates in a disseminated MEC-2 tumor xenograft model over 140 days of treatment.
Tumor cell inoculation was done on day −3 by i.v. injection of 2.5×10^6 MEC-2 cells in CB17 Scid mice. Treatment was performed on day 0 by single dose i.v. injection at maximum tolerable dose (MTD) of ⅛ and MTD of 1/16 doses, respectively. Readout of the study was body weight and survival. Results are shown in FIG. 10 (body weight) and FIG. 11 (survival) at day 138 after treatment. All groups treated with conjugate gained body weight as normal, in contrast to the control group.
Treatment groups are defined in Table 4. Group 10 (chHH1-HDP-LALA-D265C, p.o., single dose; 10 mg/kg) was excluded from analysis. Group 11 (Ibrutinib) was treated with Ibrutinib p.o. 5x/w for 3 weeks at a dose 25 mg/kg.

Data set [1] concerns Richter syndrome cells (PDX RS1316). The experiment in a line: Richter's syndrome patient-derived xenograft (PDX) model, intravenous. It counts as in vivo, CB17 Scid mice. As to conditions: for efficacy in treating RS / tolerability of a single dose: single dose at different doses, 15 days post engraftment. An excerpt:
The patient-derived xenograft (PDX) model for Richter's syndrome were adapted from Cancer Res (2018); 78 (13); 3413-20 with modifications.
Briefly, a total of 2×10^7 primary Richter syndrome cells from peripheral blood or lymph nodes were resuspended in Matrigel (BD Biosciences) and subcutaneously injected (double flank) in 8-week old CB17 Scid mice immunocompromised mice and left to engraft. Tumor masses were then collected, partially disrupted, and tumor cells reinjected as a single-cell suspension in Matrigel. These steps were repeated several times to obtain stable models of Richter syndrome.
For the intravenous model, 10^7 Richter syndrome cells purified from tumor masses were resuspended in PBS and injected in the tail vein of the mice. Mice were injected with a single dose of the conjugates XXIII, XXIV, or XXVI as indicated. All mice within the PBS control group died within 68 days post engraftment. One animal in the group receiving conjugate XXVI at a dose of 5 mg/kg i.v. died at day 90 post engraftment.
To assess residual RS disease activity in the organs of engrafted animals mice were euthanized and peripheral blood and organs (kidneys, spleen, bone marrow, lung, liver, and brain) collected and disease spread evaluated by flow cytometry, using anti-human antibodies (CD45PerCPCy5.5/CD19APC/CD20FITC).
On the technique in general: A xenograft is tissue or cells of one species grown in another, often human tumour cells in immunodeficient mice.

Another data set concerns Raji-Luc tumor xenograft. The data set is described as follows: Disseminated Raji-Luc tumor xenograft model. It counts as in vivo, CB17 Scid mice. Conditions: single dose i.v., day 89 after treatment. The protocol:
Cytotoxic efficacy studies in vivo were performed using various anti-CD37 antibody amatoxin conjugates in a disseminated Raji-Luc tumor xenograft model over 89 days of treatment.
Tumor cell inoculation was done on day-3 by i.v. injection of 2.5×10^6 Raji-Luc cells in CB17 Scid mice. Treatment was performed on day 0 by single dose i.v. injection at maximum tolerable dose (MTD) of 1/16 and MTD of 1/64 doses of cynomolgus MTD, respectively. Readout of the study was body weight, bioluminescence and survival. Results are shown in FIG. 10 (body weight), FIG. 11 (bioluminescence) and FIG. 12 (survival) at day 89 after treatment. All groups treated with conjugate gained body weight as normal, in contrast to the control group.

For orientation: Kd means the constant that tells how readily two partners part at equilibrium. For amanitin, the Kd on RNA-polymerase II is 3 nM.
For the molecule `C=CC(=O)N1CCC[C@@H](n2nc(-c3ccc(Oc4ccccc4)cc3)c3c(N)ncnc32)C1` [Ibrutinib, reference compound], the Alive animals in the data set on MEC-2 tumor xenograft (25 mg/kg p.o. 5×/w for 3 weeks) is given as 0/10.

B1: conjugate XXVI (conjugate)
heavy: EIQLQQSGPELVKPGASVKVSCKASGYSFTDYNMYWVKQSHGKSLEWIGYIDPYNGDTTYNQKFKGKATLTVDKSSSTAFIHLNSLTSEDSAVYYCARSPYGHYAMDYWGQGTSVTVSSASTKGPSVFPLAPSSKSTSGGTAALGCLVKDYFPEPVTVSWNSGALTSGVHTFPAVLQSSGLYSLSSVVTVPSSSLGTQTYICNVNHKPSNTKVDKKVEPKSCDKTHTCPPCPAPEAAGGPSVFLFPPKPKDTLMISRTPEVTCVVVCVSHEDPEVKFNWYVDGVEVHNAKTKPREEQYNSTYRVVSVLTVLHQDWLNGKEYKCKVSNKALPAPIEKTISKAKGQPREPQVYTLPPSREEMTKNQVSLTCLVKGFYPSDIAVEWESNGQPENNYKTTPPVLDSDGSFFLYSKLTVDKSRWQQGNVFSCSVMHEALHNHYTQKSLSLSPGK
light: DIVMTQSHKLLSTSVGDRVSITCKASQDVSTAVDWYQQKPGQSPKLLINWASTRHTGVPDRFTGSGSGTDYTLTISSMQAEDLALYYCRQHYSTPFTFGSGTKLEIKRTVAAPSVFIFPPSDEQLKSGTASVVCLLNNFYPREAKVQWKVDNALQSGNSQESVTEQDSKDSTYSLSSTLTLSKADYEKHKVYACEVTHQGLSSPVTKSFNRGEC
Regarding B1, the “animals that died in the treated group” value in data set [1] (5 mg/kg i.v. single dose, n=4, death at day 90 post engraftment) is on record as “One animal”. Besides, in data set [1], the “efficacy in treating RS” value was “effective in treating RS” and the “tolerability of a single dose” value is given as “well tolerated”.

B2: Conjugate XXV (conjugate)
heavy chain: B1 heavy
light chain: B1 light
Consider B2, for which the Alive animals is 8/10 in the data set on MEC-2 tumor xenograft (0.94 mg/kg (MTD 1/16), i.v. single dose); 9/10 in the data set on MEC-2 tumor xenograft (1.88 mg/kg (MTD 1/8), i.v. single dose); 9/10 with Raji-Luc tumor xenograft (0.188 mg/kg (MTD 1/64)); 10/10 in the data set with Raji-Luc tumor xenograft (0.75 mg/kg (MTD 1/16)).

B3: Conjugate XXIV (conjugate)
heavy: B1 heavy
light: B1 light
As for B3, the Alive animals was 4/10 with MEC-2 tumor xenograft (1.25 mg/kg (MTD 1/16), i.v. single dose); 6/10 with MEC-2 tumor xenograft (2.5 mg/kg (MTD 1/8), i.v. single dose); 9/10 in the data set with Raji-Luc tumor xenograft (0.188 mg/kg (MTD 1/64)); 10/10 with Raji-Luc tumor xenograft (0.75 mg/kg (MTD 1/16)). In addition, the “efficacy in treating RS” value in data set [1] is on record as “effective in treating RS”. Moreover, in data set [1], the “tolerability of a single dose” value was “well tolerated”. Further, the “residual RS disease activity in organs (flow cytometry CD45/CD19/CD20)” value in data set [1] (single dose, 5 mg) is on record as “significantly reduce”.
